From PMC4660213, “Identification and characterization of multiple rubisco activases in chemoautotrophic bacteria” (Nature Communications, 2015)
One block for each substance: values may come before it.

Legend:
[1] = molecular target: Acidithiobacillus ferrooxidans form I rubisco (L8S8) (Acidithiobacillus ferrooxidans ATCC 23270) (UniProt B7JA24)
[2] = molecular target: Acidithiobacillus ferrooxidans CbbQ2 (Acidithiobacillus ferrooxidans ATCC 23270) (UniProt B7J5E4); assay: SEC + other: glycerol gradient sedimentation; combined Stokes radius/sedimentation analysis: Stokes radius from gel filtration, Svedberg coefficient from 5–30% glycerol gradients in buffer A (1 mg/ml, 35,000 r.p.m., 16 h, 4 °C); M=4,205 (SRs)
[3] = molecular target: Acidithiobacillus ferrooxidans CbbQ2 (Acidithiobacillus ferrooxidans ATCC 23270) (UniProt B7J5E4); assay: quantitative densitometry of SDS-PAGE; Coomassie-stained SDS–PAGE of the purified complexes (4 µg per lane), assuming equal binding of the dye
[4] = molecular target: Acidithiobacillus ferrooxidans CbbQ2 (Acidithiobacillus ferrooxidans ATCC 23270) (UniProt B7J5E4)
[5] = molecular target: AfM with E75 mutated to alanine (Acidithiobacillus ferrooxidans ATCC 23270)
[6] = molecular target: Acidithiobacillus ferrooxidans form II rubisco (Acidithiobacillus ferrooxidans ATCC 23270) (UniProt B7J5E3)

stimulation of Q1O1 ATPase activity (0.27 µM oligomer) by saturating concentrations of stably inhibited AfLS (ER, ECMC) [1]: 2 fold
Substance: CbbQ1-CbbO1 hetero-oligomer (CbbQ6CbbO1) (complex)

stoichiometry N (CbbO fragment per CbbQ hexamer) [2]: 1
stoichiometry N (CbbO fragments per 6 CbbQ subunits) [3]: 3.5
basal ATPase activity of the Q2O2ΔC444 complex (min^−1 protomer CbbQ^−1) [4]: < 1
Substance: C-terminally truncated CbbO2 (residues 1–444) (domain or fragment)

rubisco activase activity of Q2O2 on AfM with E75 mutated to alanine [5]: 80 % reduction
stimulation of Q2O2 ATPase activity (0.27 µM oligomer) by saturating concentrations of stably inhibited AfM (ER, ECMC) [6]: 20 fold
Substance: CbbQ2-CbbO2 hetero-oligomer (CbbQ6CbbO1) (complex)
